The values below come from patent US20060088522A1, “Humanized anti-5T4 antibodies and anti-5T4/calicheamicin conjugates” (Wyeth, priority 2004, published 2006).

One assay relates to PC14PE6 lung tumors. Nature of the assay: orthotopic model of human lung cancer. It counts as in vivo, nude mice. The note with it: intraperitoneal, 3 doses on days 6, 10 and 14. How it is done: To further assess the targeting ability of antibodies having an H8-calicheamicin conjugates, an orthotopic model for non-small cell and small cell cancer was used, essentially as described by Onn et al. (2003) Clin. Cancer Res. 9(15):5532-5539. In brief, human lung adenocarcinoma (PC14PE6) cells were injected into tail veins of nude mice, which then migrated to form tumors in lung. Tumors appeared as solid nodules in the lung parenchyma and caused hemorrhagic pleural effusions containing suspended tumor cells. Injection of control compounds and H8-calicheacmicin conjugates were administered by intraperitoneal injection to tumor-bearing mice beginning at 6 days after injection of tumor cells for a total of 3 doses given at 4-day intervals, i.e., on days 6, 10, and 14.

In assay [1] the target is T1, human 5T4 antigen on cells (human, UniProt Q13641 32-420).
T1 construct: whole, on cells; also called 5T4 on MDAMB435/5T4 cells; 5T4 on CT26/5T4 cells
T1 sequence (looked up): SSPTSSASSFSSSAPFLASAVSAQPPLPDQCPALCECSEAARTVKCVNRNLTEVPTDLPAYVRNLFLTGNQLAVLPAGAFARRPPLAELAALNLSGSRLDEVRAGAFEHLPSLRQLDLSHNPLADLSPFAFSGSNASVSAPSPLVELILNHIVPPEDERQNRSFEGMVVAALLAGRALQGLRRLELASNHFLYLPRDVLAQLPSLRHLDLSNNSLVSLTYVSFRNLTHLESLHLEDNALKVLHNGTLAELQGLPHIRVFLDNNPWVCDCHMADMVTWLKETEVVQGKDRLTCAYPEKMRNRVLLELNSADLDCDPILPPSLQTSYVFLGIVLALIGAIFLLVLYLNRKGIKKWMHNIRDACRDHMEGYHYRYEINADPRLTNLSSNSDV
Nature of the assay: cell-based or functional assay.

In assay [2] the target is T2, human 5T4 antigen (human, UniProt Q13641 32-355, limits assumed).
T2 construct: Isolated antigen as used in BIACORE and ELISA; also called 5T4 oncofetal antigen
T2 sequence (looked up): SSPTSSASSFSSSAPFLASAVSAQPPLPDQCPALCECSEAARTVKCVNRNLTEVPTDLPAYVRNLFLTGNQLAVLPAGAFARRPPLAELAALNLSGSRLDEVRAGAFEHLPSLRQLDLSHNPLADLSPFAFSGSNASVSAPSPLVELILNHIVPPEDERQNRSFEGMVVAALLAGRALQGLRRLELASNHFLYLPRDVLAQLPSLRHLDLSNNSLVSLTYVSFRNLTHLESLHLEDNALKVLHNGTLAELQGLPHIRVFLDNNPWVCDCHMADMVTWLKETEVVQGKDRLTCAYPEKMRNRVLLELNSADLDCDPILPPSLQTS
The assay can be described thus: BIACORE.

Assay [3] has as its target T2, human 5T4 antigen. The assay can be described thus: BIACORE (plasmon resonance).
Assay [4] addresses T1, human 5T4 antigen on cells. Nature of the assay: FACS on MDAMB435/5T4 cells.
In assay [5] the target is T2, human 5T4 antigen. Nature of the assay: BIACORE, human 5T4 antigen immobilized on a CM5 chip, antibody 12.5 nM to 200 nM. The method, then:
BIACORE® technology utilizes changes in the refractive index at the surface layer upon binding of the antibody to the 5T4 antigen immobilized on the layer. Binding is detected by surface plasmon resonance (SPR) of laser light refracting from the surface. Analysis of the signal kinetics on rate and off rate allows the discrimination between non-specific and specific interaction. The concentration of antibody used was in the range of 12.5 nM to 200 nM.

For the molecule “CMA: anti-CD33 antibody (p67.6) conjugated to calicheamicin, AcBut linker; control conjugate”, in the assay with PC14PE6 lung tumors, the pleural effusions entry is “did not reduce the pleural effusions” and the “survival of tumor-bearing animals” value is given as “slightly increased the average survival”.

B1: H8-AcBut-CalichDMH (antibody, V domains shown)
VH: EVQLQQSGPDLVKPGASVKISCKASGYSFTGYYMHWVKQSHGKSLEWIGRINPNNGVTLYNQKFKDKAILTVDKSSTTAYMELRSLTSEDSAVYYCARSTMITNYVMDYWGQVTSVTVSS
VL: SIVMTQTPTFLLVSAGDRVTITCKASQSVSNDVAWYQQKPGQSPTLLISYTSSRYAGVPDRFIGSGYGTDFTFTISTLQAEDLAVYFCQQDYNSPPTFGGGTKLEIK
B1: the ED50 (ng/ml calicheamicin), MTS vital dye, MDAMB435/5T4 cells in assay [1] was found to be 0.04 ng/mL.

B2: H8PEGmal2-AcBut-CalichDMH (antibody, V domains shown)
VH: EVQLQQSGPDLVKPGASVKISCKASGYSFTGYYMHWVKQSHGKSLEWIGRINPNNGVTLYNQKFKDKAILTVDKSSTTAYMELRSLTSEDSAVYYCARSTMITNYVMDYWGQVTSVTVSS
VL: SIVMTQTPTFLLVSAGDRVTITCKASQSVSNDVAWYQQKPGQSPTLLISYTSSRYAGVPDRFIGSGYGTDFTFTISTLQAEDLAVYFCQQDYNSPPTFGGGTKLEIK
As to B2, the ED50 (ng/ml calicheamicin), MTS vital dye, MDAMB435/5T4 cells in assay [1] amounted to 0.9 ng/mL.

B3: H8 antibody/PEG-SBA (PEG5K) (antibody, V domains shown)
VH: EVQLQQSGPDLVKPGASVKISCKASGYSFTGYYMHWVKQSHGKSLEWIGRINPNNGVTLYNQKFKDKAILTVDKSSTTAYMELRSLTSEDSAVYYCARSTMITNYVMDYWGQVTSVTVSS
VL: SIVMTQTPTFLLVSAGDRVTITCKASQSVSNDVAWYQQKPGQSPTLLISYTSSRYAGVPDRFIGSGYGTDFTFTISTLQAEDLAVYFCQQDYNSPPTFGGGTKLEIK
notes: also called H8PEG5K; H8PEG
With B3, the “fraction of binding to 5T4 lost following antibody modification” value (shortened to “fraction of binding”) in the assay with human 5T4 antigen [2] came to 79%.

B4: H8 antibody/PEG-bis-maleimide (PEGmal2) (antibody, V domains shown)
VH: EVQLQQSGPDLVKPGASVKISCKASGYSFTGYYMHWVKQSHGKSLEWIGRINPNNGVTLYNQKFKDKAILTVDKSSTTAYMELRSLTSEDSAVYYCARSTMITNYVMDYWGQVTSVTVSS
VL: SIVMTQTPTFLLVSAGDRVTITCKASQSVSNDVAWYQQKPGQSPTLLISYTSSRYAGVPDRFIGSGYGTDFTFTISTLQAEDLAVYFCQQDYNSPPTFGGGTKLEIK
notes: also called H8PEGmal2; H8PEG(mal2)
As for B4, in the assay with human 5T4 antigen [2], the “fraction of binding” value stood at 43%.

B5: H8 antibody/PEG-SPA (PEG2K) (antibody, V domains shown)
VH: EVQLQQSGPDLVKPGASVKISCKASGYSFTGYYMHWVKQSHGKSLEWIGRINPNNGVTLYNQKFKDKAILTVDKSSTTAYMELRSLTSEDSAVYYCARSTMITNYVMDYWGQVTSVTVSS
VL: SIVMTQTPTFLLVSAGDRVTITCKASQSVSNDVAWYQQKPGQSPTLLISYTSSRYAGVPDRFIGSGYGTDFTFTISTLQAEDLAVYFCQQDYNSPPTFGGGTKLEIK
notes: also called H8PEG2K; H8PEG
B5: in the assay with human 5T4 antigen [2], the “fraction of binding” value was 69%.

B6: Murine H8/CM (antibody, V domains shown)
VH: EVQLQQSGPDLVKPGASVKISCKASGYSFTGYYMHWVKQSHGKSLEWIGRINPNNGVTLYNQKFKDKAILTVDKSSTTAYMELRSLTSEDSAVYYCARSTMITNYVMDYWGQVTSVTVSS
VL: SIVMTQTPTFLLVSAGDRVTITCKASQSVSNDVAWYQQKPGQSPTLLISYTSSRYAGVPDRFIGSGYGTDFTFTISTLQAEDLAVYFCQQDYNSPPTFGGGTKLEIK
notes: also called murine H8-calicheamicin conjugates
As to B6, in the assay with human 5T4 antigen [3], binding was put at a Kd of 0.58 nM, the koff was 5.9e-05 s⁻¹ and the kon worked out at 100000 M⁻¹ s⁻¹.

B7: H8-Amide-CalichDMH (antibody, V domains shown)
VH: EVQLQQSGPDLVKPGASVKISCKASGYSFTGYYMHWVKQSHGKSLEWIGRINPNNGVTLYNQKFKDKAILTVDKSSTTAYMELRSLTSEDSAVYYCARSTMITNYVMDYWGQVTSVTVSS
VL: SIVMTQTPTFLLVSAGDRVTITCKASQSVSNDVAWYQQKPGQSPTLLISYTSSRYAGVPDRFIGSGYGTDFTFTISTLQAEDLAVYFCQQDYNSPPTFGGGTKLEIK
Regarding B7, in assay [1], the ED50 (ng/ml calicheamicin), MTS vital dye, MDAMB435/5T4 cells worked out at 0.18 ng/mL and the fold cytotoxicity, 5T4-expressing against 5T4-negative cells was determined as 200 fold.

B8: Semi-Humanized H8 (mVH/hVL1) (antibody, human IgG4 S228P, kappa, V domains shown)
VH: EVQLQQSGPDLVKPGASVKISCKASGYSFTGYYMHWVKQSHGKSLEWIGRINPNNGVTLYNQKFKDKAILTVDKSSTTAYMELRSLTSEDSAVYYCARSTMITNYVMDYWGQVTSVTVSS
VL: DIVMTQSPDSLAVSLGERATINCKASQSVSNDVAWYQQKPGQSPKLLISYTSSRYAGVPDRFSGSGSGTDFTLTISSLQAEDVAVYFCQQDYNSPPTFGGGTKLEIKR
notes: murine H8 VH + mutated human IgG4; also called semi-humanized H8 antibody; semi-human anti-5T4 antibody
With B8, the binding result in assay [4] is recorded as “binds”.

B9: H8-AcPac-CalichDMH (antibody, V domains shown)
VH: EVQLQQSGPDLVKPGASVKISCKASGYSFTGYYMHWVKQSHGKSLEWIGRINPNNGVTLYNQKFKDKAILTVDKSSTTAYMELRSLTSEDSAVYYCARSTMITNYVMDYWGQVTSVTVSS
VL: SIVMTQTPTFLLVSAGDRVTITCKASQSVSNDVAWYQQKPGQSPTLLISYTSSRYAGVPDRFIGSGYGTDFTFTISTLQAEDLAVYFCQQDYNSPPTFGGGTKLEIK
Regarding B9, the ED50 (ng/ml calicheamicin), MTS vital dye, MDAMB435/5T4 cells in assay [1] came out at 0.02 ng/mL.

B10: Humanized H8 version 2 (hVH2/hVL2) (antibody, human IgG4 S228P, kappa, V domains shown)
VH: QVQLVQSGAEVKKPGASVKVSCKASGYSFTGYYMHWVRQAPGQGLEWMGRINPNNGVTLYNQKFKDRVTMTRDTSISTAYMELSRLRSDDTAVYYCARSTMITNYVMDYWGQGTLVTVSS
VL: DIVMTQSPDSLAVSLGERATINCKASQSVSNDVAWYQQKPGQPPKLLIYYTSSRYAGVPDRFSGSGSGTDFTLTISSLQAEDVAVYYCQQDYNSPPTFGGGTKLEIKR
In turn, B10 came in with a Kd in the assay with human 5T4 antigen [5] of 0.12 nM.

B11: Humanized H8 version 2/AcBut/CalichDMH (antibody, human IgG4 S228P, kappa, V domains shown)
VH: QVQLVQSGAEVKKPGASVKVSCKASGYSFTGYYMHWVRQAPGQGLEWMGRINPNNGVTLYNQKFKDRVTMTRDTSISTAYMELSRLRSDDTAVYYCARSTMITNYVMDYWGQGTLVTVSS
VL: DIVMTQSPDSLAVSLGERATINCKASQSVSNDVAWYQQKPGQPPKLLIYYTSSRYAGVPDRFSGSGSGTDFTLTISSLQAEDVAVYYCQQDYNSPPTFGGGTKLEIKR
modifications: CalichDMH conjugated through the AcBut linker; residues not stated
notes: Conjugate sample contained 61 ug CalichDMH per mg protein, 1% free antibody, 1.4% aggregate; also called humanized H8 calicheamicin conjugate
B11: in the assay with human 5T4 antigen [3], the Kd is 0.26 nM, the koff is 3.4e-05 s⁻¹ and the kon was 130000 M⁻¹ s⁻¹.

B12: Humanized H8 version 2/CM (antibody, human IgG4 S228P, kappa, V domains shown)
VH: QVQLVQSGAEVKKPGASVKVSCKASGYSFTGYYMHWVRQAPGQGLEWMGRINPNNGVTLYNQKFKDRVTMTRDTSISTAYMELSRLRSDDTAVYYCARSTMITNYVMDYWGQGTLVTVSS
VL: DIVMTQSPDSLAVSLGERATINCKASQSVSNDVAWYQQKPGQPPKLLIYYTSSRYAGVPDRFSGSGSGTDFTLTISSLQAEDVAVYYCQQDYNSPPTFGGGTKLEIKR
modifications: calicheamicin (CM) conjugated; linker and residues not stated
notes: also called humanized H8 version 2-calicheamicin conjugates
Take B12: in the assay with human 5T4 antigen [3], the affinity, expressed as Kd, was 0.17 nM; the koff was found to be 2e-05 s⁻¹; the kon came out at 120000 M⁻¹ s⁻¹.

B13: Humanized H8 version 1 (hVH1/hVL1) (antibody, human IgG4 S228P, kappa, V domains shown)
VH: QVQLVQSGAEVKKPGASVKVSCKASGYSFTGYYMHWVKQSPGQGLEWIGRINPNNGVTLYNQKFKDRVTMTRDTSISTAYMELSRLRSDDTAVYYCARSTMITNYVMDYWGQGTLVTVSS
VL: DIVMTQSPDSLAVSLGERATINCKASQSVSNDVAWYQQKPGQSPKLLISYTSSRYAGVPDRFSGSGSGTDFTLTISSLQAEDVAVYFCQQDYNSPPTFGGGTKLEIKR
Turning to B13, binding with human 5T4 antigen [5] was put at a Kd of 0.84 nM.

B14: Humanized H8 version 3 (hVH3/hVL2) (antibody, human IgG4 S228P, kappa, V domains shown)
VH: QVQLVQSGAEVKKPGASVKVSCKASGYSFTGYYMHWVRQAPGQGLEWMGRINPNNGVTLYNQKFKDRVTITRDTSTSTAYMELSSLRSEDTAVYYCARSTMITNYVMDYWGQGTLVTVSS
VL: DIVMTQSPDSLAVSLGERATINCKASQSVSNDVAWYQQKPGQPPKLLIYYTSSRYAGVPDRFSGSGSGTDFTLTISSLQAEDVAVYYCQQDYNSPPTFGGGTKLEIKR
In the assay with human 5T4 antigen [5], B14 had a Kd of 0.12 nM.
